# Assay results taken from publication PMC3864119 (Journal of proteome research, 2013).
# Target: FLAG-tagged human GABAC-ρ1 subunit V353D (human, UniProt P24046 22-479, V353D)
# Assay: co-IP
binder,measurement,value
"Calnexin (natural protein, human (endogenous in HEK293), UniProt P27824 21-592, looked up) HDGHDDDVIDIEDDLDDVIEEVEDSKPDTTAPPSSPKVTYKAPVPTGEVYFADSFDRGTLSGWILSKAKKDDTDDEIAKYDGKWEVEEMKESKLPGDKGLVLMSRAKHHAISAKLNKPFLFDTKPLIVQYEVNFQNGIECGGAYVKLLSKTPELNLDQFHDKTPYTIMFGPDKCGEDYKLHFIFRHKNPKTGIYEEKHAKRPDADLKTYFTDKKTHLYTLILNPDNSFEILVDQSVVNSGNLLNDMTPPVNPSREIEDPEDRKPEDWDERPKIPDPEAVKPDDWDEDAPAKIPDEEATKPEGWLDDEPEYVPDPDAEKPEDWDEDMDGEWEAPQIANPRCESAPGCGVWQRPVIDNPNYKGKWKPPMIDNPSYQGIWKPRKIPNPDFFEDLEPFRMTPFSAIGLELWSMTSDIFFDNFIICADRRIVDDWANDGWGLKKAADGAAEPGVVGQMIEAAEERPWLWVVYILTVALPVFLVILFCCSGKKQTSGMEYKKTDAPQPDVKEEEEEKEEEKDKGDEEEEGEEKLEEKQKSDAEEDGGTVSQEEEDRKPKAEEDEILNRSPRNRKPRRE",fold change of the ratio of immunoprecipitated calnexin/ρ1 against WT,1.8 fold
